Experimental findings from paper doi:10.1101/2022.11.28.518166, “The direct interaction with transcriptional factor TEAD4 implied a straightforward regulation mechanism of tumor suppressor NF2” (bioRxiv, 2022) are described below.

Changes are numbered by the printed parent chain. Names and notes keep the numbering of the source.

The chains are these.
B1: TEAD4 YBD domain (217-434) with N-terminal SUMO and 6xHis tag (domain or fragment, human, UniProt Q15561 217-434, looked up)
chain: RSVASSKLWMLEFSAFLEQQQDPDTYNKHLFVHIGQSSPSYSDPYLEAVDIRQIYDKFPEKKGGLKDLFERGPSNAFFLVKFWADLNTNIEDEGSSFYGVSSQYESPENMIITCSTKVCSFGKQVVEKVETEYARYENGHYSYRIHRSPLCEYMINFIHKLKHLPEKYMMNSVLENFTILQVVTNRDTQETLLCIAYVFEVSASEHGAQHHIYRLVKE
notes: Detected in the pull-downs with an antibody against 6xHis; also called SUMO-TEAD4; SUMO-tagged TEAD4-YBD; source: Escherichia coli BL21 (DE3), purified (Ni-NTA, Superdex 200); not shown: SUMO, N-terminal, kept; His6, N-terminal, kept
B2: GST-YAP 47-131 (domain or fragment, UniProt P46937 47-131, looked up)
chain: APPAGHQIVHVRGDSETDLEALFNAVMNPKTANVPQTVPMRLRKLPDSFFKPPEPKSHSRQASTDAGTAGALTPQHVRAHSSPAS
notes: YAP (Yes-associated protein), residues 47-131
B3: TEAD4-2CS (C335S/C367S), non-palmitoylated mutant of TEAD4-YBD (domain or fragment, human, UniProt Q15561 217-434, looked up)
chain: B1 chain with C119S, C151S
notes: TEAD4, human, YBD, residues 217-434 as TEAD4-YBDHis, with C335S and C367S; source: recombinant; not shown: His6, N-terminal, kept
B4: GST-NF2-507-595 WT (domain or fragment, UniProt P35240 507-595, looked up)
chain: FDFKDTDMKRLSMEIEKEKVEYMEKSKHLQEQLNELKTEIEALKLKERETALDILHNENSDRGGSSKHNTIKKLTLQSAKSRVAFFEEL

Holding throughout (conditions): both partners purified
One test deals with T1, MBP-NF2 (18-595) WT (UniProt P35240 18-595).
T1 construct: also called MBP-NF2 WT; MBP-NF2 FL; source: purified (amylose resin, Superdex 200); not shown: MBP, N-terminal, kept
T1 sequence (looked up): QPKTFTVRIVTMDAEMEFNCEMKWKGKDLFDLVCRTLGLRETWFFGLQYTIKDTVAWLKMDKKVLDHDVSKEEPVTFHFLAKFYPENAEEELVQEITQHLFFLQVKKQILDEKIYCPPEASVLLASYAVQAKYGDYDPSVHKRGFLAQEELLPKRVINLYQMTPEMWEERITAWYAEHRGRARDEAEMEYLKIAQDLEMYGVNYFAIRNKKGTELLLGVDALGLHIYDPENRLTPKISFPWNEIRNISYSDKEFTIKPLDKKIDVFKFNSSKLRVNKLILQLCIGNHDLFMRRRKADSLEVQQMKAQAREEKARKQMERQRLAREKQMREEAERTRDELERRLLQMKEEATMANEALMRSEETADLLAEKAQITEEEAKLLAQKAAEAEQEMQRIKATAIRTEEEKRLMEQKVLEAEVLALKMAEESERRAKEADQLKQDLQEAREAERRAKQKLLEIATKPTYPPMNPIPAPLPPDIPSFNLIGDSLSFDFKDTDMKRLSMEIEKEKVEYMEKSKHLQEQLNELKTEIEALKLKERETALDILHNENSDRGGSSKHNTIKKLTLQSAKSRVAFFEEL
As to the kind of experiment: pull-down; MBP-NF2 bound to MBP resin in PBS 1 h at 4 °C, incubated with purified SUMO-TEAD4 in PBS 1 h at 4 °C, washed four times; SDS-PAGE and anti-6xHis blot.

A further test deals with T2, MBP-NF2 A585W mutant (UniProt P35240 18-595, A585W).
T2 construct: source: purified as MBP-NF2; not shown: MBP, N-terminal, kept
T2 sequence (looked up): T1 sequence (looked up) with A568W
The test is described as above.

The target in test [1] is T3, full-length NF2 with GST tag (UniProt P35240 1-595).
T3 construct: NF2 (Merlin), full length; also called GST-NF2; GST-NF2-FL; source: Escherichia coli, purified
T3 sequence (looked up): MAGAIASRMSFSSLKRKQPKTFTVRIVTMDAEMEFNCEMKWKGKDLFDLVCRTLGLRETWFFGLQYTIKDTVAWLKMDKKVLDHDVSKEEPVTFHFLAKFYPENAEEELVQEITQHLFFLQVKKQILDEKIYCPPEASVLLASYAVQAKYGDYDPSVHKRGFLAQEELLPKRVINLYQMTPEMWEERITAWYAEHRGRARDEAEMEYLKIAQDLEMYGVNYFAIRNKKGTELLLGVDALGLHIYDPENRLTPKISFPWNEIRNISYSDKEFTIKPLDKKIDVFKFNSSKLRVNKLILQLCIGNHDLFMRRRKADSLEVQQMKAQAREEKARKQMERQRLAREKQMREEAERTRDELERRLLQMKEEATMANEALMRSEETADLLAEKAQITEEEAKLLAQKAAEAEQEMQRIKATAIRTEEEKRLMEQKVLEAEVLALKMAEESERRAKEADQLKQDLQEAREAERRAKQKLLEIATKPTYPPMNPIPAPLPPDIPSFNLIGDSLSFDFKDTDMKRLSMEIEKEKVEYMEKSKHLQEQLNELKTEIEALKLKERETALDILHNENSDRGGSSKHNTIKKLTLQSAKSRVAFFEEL
Briefly: pull-down; GST-NF2 (full length, truncations) bound to GST resin in PBS 1 h at 4 °C, incubated with purified SUMO-TEAD4 in PBS 1 h at 4 °C, washed four times; SDS-PAGE and anti-6xHis blot; in Figure 2C with or without co-incubated FERM domain.

The target in test [2] is T4, GST-NF2 N-terminal FERM domain (1-341 aa) (UniProt P35240 1-341).
T4 construct: also called GST-NF2-FERM WT
T4 sequence (looked up): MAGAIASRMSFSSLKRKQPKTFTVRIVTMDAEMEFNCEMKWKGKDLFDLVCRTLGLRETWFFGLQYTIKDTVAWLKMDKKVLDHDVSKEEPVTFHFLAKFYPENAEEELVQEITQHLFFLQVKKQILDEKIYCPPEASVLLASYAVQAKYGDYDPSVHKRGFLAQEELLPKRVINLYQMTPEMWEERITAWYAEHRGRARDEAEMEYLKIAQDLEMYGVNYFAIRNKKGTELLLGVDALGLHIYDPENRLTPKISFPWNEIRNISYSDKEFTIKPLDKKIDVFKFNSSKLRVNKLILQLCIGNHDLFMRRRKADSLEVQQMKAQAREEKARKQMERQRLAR
Described as above.

The target in test [3] is T5, GST-NF2 C-terminal half (342-595 aa) (UniProt P35240 342-595).
T5 sequence (looked up): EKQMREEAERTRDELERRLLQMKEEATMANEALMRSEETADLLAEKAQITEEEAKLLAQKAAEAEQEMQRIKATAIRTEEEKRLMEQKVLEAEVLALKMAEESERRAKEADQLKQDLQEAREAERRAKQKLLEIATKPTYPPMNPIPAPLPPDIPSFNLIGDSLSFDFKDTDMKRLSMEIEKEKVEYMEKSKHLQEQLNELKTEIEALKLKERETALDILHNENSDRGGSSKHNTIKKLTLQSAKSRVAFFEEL
The description is as above.

Test [4] addresses B1. Briefly: pull-down; in vitro competitive binding assay: YAP-TEAD4 complex on GST-YAP with a dose addition of NF2; SDS-PAGE.
Test [5] has as its target B1. As to the kind of experiment: pull-down; GST-NF2 (full length, truncations) bound to GST resin in PBS 1 h at 4 °C, incubated with purified SUMO-TEAD4 in PBS 1 h at 4 °C, washed four times; SDS-PAGE and anti-6xHis blot; in Figure 2C with or without co-incubated FERM domain.

B1: the binding result (with MBP-NF2 (18-595) WT; in the test with MBP-NF2 A585W mutant; in test [1]; in test [2]; in test [3]) was “binds” throughout.

For the molecule B2, in test [4], the binding result is “binds”.

Turning to B3, the binding result in the test with MBP-NF2 (18-595) WT is “binds”.

As to B4, the binding result in test [5] is reported as “binds”.

Regarding KLKERETALDILHNENSDRGGSSKHNTIKKLTLQSAKSRVAFFEEL (domain or fragment, UniProt P35240 550-595, looked up, also called C-terminal tail) [GST-NF2 tail region (C-tail, 550-595 aa)], the binding result in test [5] is given as “binds”.
